B1: L10 (peptide)
peptide: NTRTAKGHYFVTTFYRNG
notes: source: synthetic peptide (Apeptide, Shanghai; purity >95%)
B2: L15 (peptide)
peptide: TAKGHYFVTTFYRNG
notes: as for B1
B3: L16 (peptide)
peptide: NYKIEMKNNKIILLD
notes: as for B1
B4: L13 (peptide)
peptide: GHYFVTTFY
notes: as for B1
B5: L21 (peptide)
peptide: ENFKFFGQYANLKELRK
notes: as for B1
B6: L26 (peptide)
peptide: DEIVKELRSRYNISTEKSPILKMHIDGDLKGSSVGYRKLEIDFSKRENSKLSVIEFLSYKPAKK
notes: as for B1

target: T1, recombinant Hsp90α (human, UniProt P07900 1-732); assay: far-Western, overlay or dot blot; conditions: both partners purified
T1 construct: source: bought: Abcam (recombinant)

Binder | binding result
B1 | binds
B2 | binds
B3 | binds
B4 | binds
B5 | binds
B6 | binds
